# Assay results from the DeepSol protein solubility set.
# Experiment: soluble on expression in E. coli; label from the status in PepcDB or PDB records
row,Sequence,soluble on expression in E. coli
1,MKRNAWEVYGEVLKTARELGLEGEEQEVAKALLAWPKERFHALAARVGLKAKYLRHDLLPIAFLPEPLREALQGGLPLREAHRLHRLLKRGELSLQDLTGKDPKALMALPARPGEVDPRLPVWFFPPEPWEEALPMAVARALVQLYTREGELVLDPMAGRGTVVEAARALDRRAWGGDIAPRGPLVERADIRDLPRRFRKEAALVVLHPPTFSTWLREEGYREEAEERYGEYIRHISSFLDLCRPTLAPGGKLVLVARPRRTLTPKDLEAGHDFFLAPWERALAEADFRPLSYHLAVSQDGRQDWHLFVGEPRG,soluble
2,MAHHHHHHMESKVPLFLYFMVTNHPEVKQYTELLCHQVDQANRRLKDENFGDVYQEFGKDAGLAIKLGMVDCLQEPGLMAKFHIDPHMFPLIYFVRNKVFCDKMVGVVTESHVKEAVEAFIDDAKLESKSESEGASLFQKVRRQDDDDENAMTLIAAAHGKMQAGDPAKGKQLFEKALRMSMEDMEVVKKRYGVPNKKMTPELWAKLKREPCYNSAPEALCGLAMCAMASKQRDEAFRLAARVREEFPFAPQDMRGVAEAVVRIELIQVVDYDPDTDNYMRLLKFDELVSEPAQFYKHHLKRAVAFYVEGVAGQAIEECIRLIRAEPKLLSALKEGGIVPNDLRLGPTAVTPARQVIRAIFEALGPTNERVEKGRKLLQLYL,not soluble
3,MGSDKIHHHHHHMYRVIELGHVISAPFAGEILRHLGFEVIKIEPLLGDPSRKDDVLVDSMFVFNNRGKRSISVDLRKEKGKEVFLRLVRNSHVLIENLSPHVMDRLGLSDDVIFSTNPSLVYCSIKGYPKGKYENLPAFGTIIEAESGIMDANGKARLPASITDMNASTYCVITILWALLMKKPGHYRVSIIQANTVWLGYYLIAYQKYGKLFEAGKDELPFWAPYELFKSSEEKEFYLAVNDNEKFTKLCKALGLEDLLADERFKTNADRVRNRKILHEKLQQKFSSMKLEEIMNILRYNDIPVGKLNNLKDLISNELVEWDTFRNVQVPKLPLPGSLNSQHVPNVGEDTLYILKELGYSENEIESMIKENVINYNK,not soluble
4,MSLNPNDFKDELKSVALEKANVNLRLDGDISWSFFPWLGLGLEDIGVSIGSDPEILQFDRAEFGLAILPLLKQKIQVDKVNLVNLKASLNKNAQGQGNWQLDLPDSTPAASSSIPATTASTASSTSANDTVEKLKLPDIQLDELRIENAQVQYRDEQTKQLINATLNVQLNDVQWDKAWPMVMDIAVTQSDLQGKSPIKAKATLNANLAVFPEREALSLDSLVLSADVESELLPTSPISAKLSAANVDVDLPQENVLAEGLALSVLGVNVDAKIQAYQVLSEPQFSAVLTVGEFNPRYLMTRLNLPLPEMSDDTAMTKARANVTLEGSLDSITAQPISITIDDTNIEANAVVDLSPLRWDVSVAGKNLDLDRYLPTPVEKGKDGKVEAITDVDIAAKTESGDLIPIDLIRSLNGHVGMVFENLTAKKLKIDKIELDSTQSNGLVKISPLRAYLYKGSVSSKASLDVRGITPVFNISPAIDGVQIQPLLVDFMDMNKIAGATYLNGELKAKGNSVDDLMSSLQGDLLIDIKKGALVGTNLTKTVCEGIAAVRKEKIDEQQFGPDTPFETMRFPAHIVNGRVSTPGLKISSAGIQVTGDGVVSLPNSSLDYQANVGIAGSELDKACHVNEKVTKLAFPIVCKGKFSDDPAGLCRPDIKGFGKLFADLAEDELKLKVDAEKARLKEGHHHHHH,soluble
5,MKERMQKTSAQAHDFPQRARTESEWYEGVQTFMWMTEDNIVEVPFDKEHLLEIILSPSNLNKAYKAVVRNNGSGGIDKMSCEQLLSWLKANKDELIISLQSGTYRPNPVRRVEIPKDNGKKRLLGIPTVVDRLVQQAINQVLTLIYERQFSKTSYGFRPQRGCHDALRKAQKIVSEGYIYVVDLDLERFFDTVSHSKLIEILSRTIKDGRVISLIHKYLRSGVINRGMFEMSTEGTPQGGPLSPLLSNIMLNELDKELERRGHPFVRYADDAMIFCKSKRAAKRVRESITLFIEGKLFLKVNHEKTVVSYVKGVKFLGYSFYVKKGDCILLVHSKSKNKMKSKLKELTSRSNGWGYEKRKQKLKDYIRGWIAYFCLAQMKRLCIETDEWLRRRIRMCIWKSWKNAKTRVANLKKCGVSEWQAYQWGNTRLGYWRVSNSPIVTFVMSNDKLRKAGYMEFMDCYLKWCPKLEHHHHHH,soluble
6,GSHMAPADYFRVLVQQFEVQLQQYRQQIEELENHLATQANNSHITPQDLSMAMQKIYQTFVALAAQLQSIHENVKVLKEQYLSYRKMFLGDAG,soluble
7,SEQIMSSQQVARRMMLDIGDKPQEHLVAIYLDTQNRIIQQKTVFIGGVRRSIAEPREILYYACHLMATSLIVVHNHPSGEAYPSRNDIDFTQKIKRSCDDLGICLLDHLIVGKSTYYSFREEREDFEL,not soluble
8,TEDSLMPEEEFLRRNKGPVSIKVQVPNMQDKTEWKLNGQGLVFTLPLTDQVSVIKVKIHEATGMPAGKQKLQYEGIFIKDSNSLAYYNMASGAVIHLALKER,soluble
9,MGSDKIHHHHHHMDSVSPELISNNQGYDRSHKQRLECLICNYHVDLNDKSAFSTFFCNVRAFRDEKFPIWRCPTCQTIHCLDVVDIDSYYAKYPFAEAKLTLPFRLCYQNLCQKMIEHGFSKTHSFLDYGCGNGLVVQYLRENGFANAYGYDPYAPKESFGDATVLQRGPFDYILLQDIIEHVEDPHALLSKLDSLLAPGGYLLLGTPNATNIDINRPELSNYYNAVHVPYHIHIYTREVVESLGKQQGWEVVKFFNRGYDDTRWFGLNTRTWNEYQSISDGTFDVIFEEINIWQALKSYRFLFYAFFGYWLSLRTDMTIMFRKKITD,not soluble
10,MSLKQQLIKNGLVLDMKGNHKPQAKDILIEGKWIRDIRPNIEPEVDTEIIDAEGKIVMPGFVDTHRHVWESLLRHIGTDWTLLTYLDNLYYGNLGSMLTPEDSYIANLWGALEAIDAGVTTVLDWSMLETPEHADASIKGLQAAGIRAVFAHGTPGYETYWSRDSEVRHPKDAKRVKKEYFQSDDQLLTMALAIRGPEFSSWEVTLDDIQLARELDAIASMHIGFGTWGPHDRSITRMREAGLLDSDLNLVHVNRIQPHEYEYIAESGASLSVTPEVEMMMGHGYPATGYLHKHRGLVTLGVDVVVATAGDMFAQMKFALQAERAWQNEQRLDRGEMPEQLKMTTNDVLTFATLNGAKALKLDDKIGTLDVGKEADLLLINPSSFNLFPLNHEPVGAVVQSARPENVDSVFIAGRPVKRHGKLLFDDLDGLRNKVLAASEAVFHRQAAKNEGHHHHHH,soluble
11,MGSDKIHHHHHHMQRDDDSFMLVPSKGEDYMAGWHLDTKMAQDIVARTMRIIDTNINVMDARGRIIGSGDRERIGELHEGALLVLSQGRVVDIDDAVARHLHGVRQGINLPLRLEGEIVGVIGLTGEPESLRKYGELVCMTAEMMLEQSRLMHLLAQDSRLREELVMNLIQAEEHTPALNEWAQRLGIDLNQPRVVAMIEVDSGQLGVDSAMAELQQLQNALTTPDRNNLVAIVSLTEMVVLKPALNSFGRWDADDHVRRVEQLIARMKENGQLRFRVALGNFFTGPGSIARSYRTARTTMMVGKQRMPESRSYFYQDLMLPVLLDSLRGGWQANELARPLARLKAMDNNGLLRRTLQAWFRHNVQPLATSKALFIHRNTLEYRLNRISELTGLDLGSFDDRLLLYIALQLDEQR,not soluble
12,MSLANFVHEGDLPDGVFADAEIIAIDSETMGLRLRRDPLCVVQLSAGDGDAHVVRLSRPDYDCPNLKALLTNPKVLKLFHFGRFDIAMFELHLGVVTAPVYCTKIASKLARTYTDRHGLKDVTRELLGVELSKVQQSSDWGAPSLSVDQVAYAASDVLHLHGLRLKLNAMLEREGRMALAQHAFDYLPHRASLDLAGWEEMDIFAHSEGHHHHHH,soluble
13,LFNYKPGTSVFSIATAGCNFKCKHCQNWEISQSLPEEVPFSELTPEDVVELAKNYLCEGIAYTYTEPTIFYEFMQETAKLAKKHDLFNVMVTNGYIEKEPLKKLEIDAMNIDIKGNSEFYKKICLAELEPVLETCRLAKKLGIHIEITNLVVPTYNDNPKYIESIINFVKDELGVDTPLHFTAFYPHYKLTSVPSTRMETIKKARDMALNAGLHYVYAGNV,not soluble
14,MAHHHHHHMSNDPKPTKPDPRVANNDVASDDGSDGKGDVAAPPAFLPTAGRVEVHPLVLLSLVDHYARMNTSAVQKKRVAGLLLGRYVRDSTGMQTLDINNSFAVPFDEDPQDAGVWFFDTNYAQEMFAMHKRVLPKVKVVGWYSSGPTIQPNDMLLHLLVADRFCLNPVYCVVNTDPNNKGVPVRAYTTVQGREGTRSLEFRNIPTHLGAEEAEEIGIEHLLRDLTDSTITTLSTQVQERELSLVHLCKVLQQIEEYLKDVGNAVMPISEDVLEVLQELISLQPEIYARRSSTEMIRHTNDEAIATFLAAIARCIGALHGVIMNRRKLARELQEIKDRRARAAETRLENEKMKIEEAAKEKDTNQA,not soluble
15,MVTKRIIPCLDVHNGRVVKGVNFVNIRDAGDPVEIASYYDKAGADELTFLDITASAEARNIMIDVVRRVAEQVFIPFTVGGGIRTVEDFREILKAGADKVSINSAAVKRPELISEAASRFGSQCVVVAIDAKRRDDNSGWDVYINGGRINTGKDAVEWAVEVEKLGAGEILLTSMDCDGTKKGYDIELTRKVSESVRIPVIASGGAGTMEHFREALVEGKADAVLAASLFHYREIEIMELKKYLKENGIEIRM,not soluble
16,MAHHHHHHMGGYFSKDLEECLRNEKRNLNRSIRELEREIFKLTNEQSKIEKNIKINAKRNGDTSTVRTLARDYISIKKTIAKYNKLKSHLFSMKVKLQSVKSSEQLGRSLTEINRVIKRVNGYIKLTSLNKSINDFHKENNEVSLKEDMLDDLFEAFDYDSQMVAEEEELVTKVLEGMGIQMNAKLEDIPSPGELPKTQVDHLGVSDLEARINNLRLGKS,soluble
17,MGSDKIHHHHHHMAVSSNGGAIKAVIYDCDGVMFDSFEANLAFYQRIMEMMGRPRLSRDNEEQMRILHTYANREVLAHFFPSPGDWEEAVRCAGAIDYRELVPLMIMEEGFREALDTLKGRVGLGVCTNRSTSMDMVLRLFSLDSYFSIVMTASRVTNPKPHPEPLLKVLEHFGIGPREALFVGDSEVDRLSAEAAGVPFVAYKAPLPAAYRMEHHREIIDLLG,not soluble
18,GEHTTCGCGEHCGCNPCACGREGTPSGRANRRANCSCGAACNCASCGSATAPG,soluble
19,MASSSLIMGNNMHVKYLAGIVGAALLMAGCSSSNELSAAGQSVRIVDEQPGAECQLIGTATGKQSNWLSGQHGEEGGSMRGAANDLRNQAAAMGGNVIYGISSPSQGMLSSFVPTDSQIIGQVYKCPNLEHHHHHH,not soluble
20,MGSDKIHHHHHHMYQPISIVNIYYQGFGDKRLIGKLTMDGRRPTFGYDAAWLADGLELSPIEMPLRSAPYYGSHASSHYLCGLLSDSLPDGWGMLLMDRFFRRTISNTAPVNILDRLAYIGDSAMGALSFEPQHDLSANVIDMSELTLAKLAAANQTILSGQDSDILAELIVIGGSPQGARPKALVLYDESSDFITTDTASKNPSATSWLIKFPAQSEHKSVCLLEALYADMAKKAGLNMPMHHYFDIDSEYAAFGVERFDRMGNQRVHIHTLAGLLDIDFRIPSLDYLQYLRCVRMLTQSQLAVESAFKHAVFNVIFNNKDDHSKNFSFMMNEAGSWSLSPVYDLAYNSGMNGYHQMDVAGEARYPTLSHLLKLAKLADIKQNKAQAIIDQVASVAEDFLTVINDHDIEKELSNRVIQDIKANINRMVS,not soluble
